Columns and labels:
[1] = molecular target: Mdb1-pT113 phosphopeptide (fluorescein-labelled) (S. pombe); assay: fluorescence polarisation
[2] = molecular target: RHNO1-pT202 phospho-peptide (human); assay: fluorescence polarisation

## Rad4-BRCT1,2 K155E (domain or fragment)
[1]
  fold reduction of binding against wild type: 20 fold

## TOPBP1-BRCT0,1,2 segment (wild type, recombinant) (domain or fragment)
[2]
  fold tighter binding than RAD9-pS387: 10 fold

Reference: article doi:10.1101/368936
